Positions count from the first letter of the chain named. In names and notes the source's numbering stands.
T1: Human T cell receptor on human primary T cells (human, UniProt P01848 1-140; P01850 1-176)
T1 TCR alpha (looked up): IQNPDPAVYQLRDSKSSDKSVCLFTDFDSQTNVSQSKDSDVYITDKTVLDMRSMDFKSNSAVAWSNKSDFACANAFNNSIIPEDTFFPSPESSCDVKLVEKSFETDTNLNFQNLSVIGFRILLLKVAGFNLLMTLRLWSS
T1 TCR beta (looked up): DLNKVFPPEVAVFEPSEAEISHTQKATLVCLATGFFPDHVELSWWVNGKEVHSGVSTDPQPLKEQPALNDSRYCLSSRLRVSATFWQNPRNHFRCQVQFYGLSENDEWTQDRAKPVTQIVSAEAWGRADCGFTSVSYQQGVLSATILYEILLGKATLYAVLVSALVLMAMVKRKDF

T2: Cynomolgus TCR(AEA41865/AEA41866)-zipper protein (cynomolgus monkey)
T2 construct: also called cyTCR-zipper protein; cynoTCR zipper
T2 TCR alpha: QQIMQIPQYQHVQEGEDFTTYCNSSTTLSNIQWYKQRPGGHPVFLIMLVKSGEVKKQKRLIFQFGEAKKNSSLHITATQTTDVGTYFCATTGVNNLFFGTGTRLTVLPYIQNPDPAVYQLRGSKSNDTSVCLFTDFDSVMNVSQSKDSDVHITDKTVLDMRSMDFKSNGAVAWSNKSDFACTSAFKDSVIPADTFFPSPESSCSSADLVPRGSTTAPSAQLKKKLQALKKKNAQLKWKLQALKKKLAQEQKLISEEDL
T2 TCR beta: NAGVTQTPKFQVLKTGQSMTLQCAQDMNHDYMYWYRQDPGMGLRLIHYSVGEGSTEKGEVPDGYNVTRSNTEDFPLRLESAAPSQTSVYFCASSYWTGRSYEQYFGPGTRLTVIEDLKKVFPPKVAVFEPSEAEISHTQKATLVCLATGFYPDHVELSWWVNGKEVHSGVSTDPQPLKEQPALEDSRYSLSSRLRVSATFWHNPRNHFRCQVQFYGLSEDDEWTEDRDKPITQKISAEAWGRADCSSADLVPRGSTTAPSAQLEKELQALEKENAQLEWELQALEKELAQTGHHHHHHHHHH

T3: human T cell receptor on human primary T cells (human, UniProt P01848 1-140; P01850 1-176)
T3 construct: whole, on cells
T3 TCR alpha (looked up): T1 TCR alpha (looked up)
T3 TCR beta (looked up): T1 TCR beta (looked up)

T4: Cynomolgus TCR(AEA41865/AEA41866)-zipper protein (cynomolgus monkey)
T4 construct: also called cyTCR-zipper protein; cynoTCR zipper
T4 TCR alpha: T2 TCR alpha
T4 TCR beta: T2 TCR beta

B1: T017000131 (bispecific antibody)
chain: DVQLVESGGGLVQAGGSLRLSCAASGITSKINDMGWYRQTPGNYREWVASITATGTTNYRDSVKGRFTISRDNAKSTVYLQMNSLKPEDTTVYYCNTFPPISNFWGQGTLVTVSSGGGGSGGGGSGGGGSGGGGSGGGGSGGGGSGGGGSEVQLVESGGGLVQPGGSLRLSCVASGDVHKINFLGWYRQAPGKEREKVAHISIGDQTDYADSAKGRFTISRDESKNMVYLQMNSLKPEDTAVYFCRAFSRIYPYDYWGQGTLVTVSSA
notes: also called A0110056A10(E1D)-35GS-T0170056G05-A
B2: T017000634 (bispecific antibody)
chain: B1 chain with L161V, D177Y, L184Y, M227T, K236R, V242L, F244Y, F248L, Y252W
notes: also called A0110056A10(E1D)-35GS-T0170056G05(L11V, D27Y, L34Y, M77T, K83R, V89L, F91Y, F95L, Y99W)-A
B3: T017000128 (bispecific antibody)
chain: DVQLVESGGGLVQPGGSLRLSCVASGDVHKINFLGWYRQAPGKEREKVAHISIGDQTDYADSAKGRFTISRDESKNMVYLQMNSLKPEDTAVYFCRAFSRIYPYDYWGQGTLVTVSSGGGGSGGGGSGGGGSGGGGSGGGGSGGGGSGGGGSEVQLVESGGGLVQAGGSLRLSCAASGITSKINDMGWYRQTPGNYREWVASITATGTTNYRDSVKGRFTISRDNAKSTVYLQMNSLKPEDTTVYYCNTFPPISNFWGQGTLVTVSSA
B4: T017000633 (bispecific antibody)
chain: B3 chain with L11V, D27Y, L34Y, M77T, K86R, V92L, F94Y, F98L, Y102W
B5: T017000615 (VHH)
VHH: EVQLVESGGGVVQPGGSLRLSCVASYDVHKINFYGWYRQAPGKEREKVAHISIGDQTDYADSAKGRFTISRDESKNMVYLQMNSLRPEDTALYFCRALSKIWPYDYWGQGTLVTVSS
B6: T017000613 (VHH)
VHH: B5 VHH with Y26W
B7: T017000351 (VHH, not shown: small tags and cut ends)
VHH: B5 VHH with Y26G, Y34L, L98F, K100R, W102Y
notes: also called T0170000351
B8: T0170056G05 (VHH)
VHH: B5 VHH with V11L, Y26G, Y34L, R86K, L92V, L98F, K100R, W102Y
notes: also called T01700056G05; parental ISVD
B9: T017000345 (VHH, not shown: small tags and cut ends)
VHH: B5 VHH with Y26G, Y34L, F94Y, L98F, K100R, W102Y
B10: T017000623 (VHH, not shown: small tags and cut ends)
VHH: B5 VHH with Y26W, M77T, F94Y
B11: T017000635 (VHH, not shown: small tags and cut ends)
VHH: B5 VHH with Y26W, K30Q, M77T, F94Y, K100R
B12: T017000641 (VHH, not shown: small tags and cut ends)
VHH: B5 VHH with Y26W, G35T, M77T, F94Y
B13: T017000625 (VHH, not shown: small tags and cut ends)
VHH: B5 VHH with M77T, F94Y
B14: T017000691 (VHH, not shown: small tags and cut ends)
VHH: B5 VHH with Y26W, D27E, K30Q, M77T, F94Y, K100R
B15: T017000685 (VHH, not shown: small tags and cut ends)
VHH: B5 VHH with Y26G, D27E, K30Q, M77T, F94Y, K100R
B16: T017000679 (VHH)
VHH: B5 VHH with E1D, Y26G, D27Y, M77T, F94Y, K100R
B17: T017000681 (VHH)
VHH: B5 VHH with E1D, Y26G, D27Y, M77T, L92T, F94Y, K100R

Molecular target: T1, Human T cell receptor on human primary …
Test: cell-based or functional assay
Throughout, for % Lysis, T cell mediated MOLM-13 cell killing, cynomolgus primary T cells, E:T 10:1: test concentration or dose not given here.
Throughout, for % Lysis, T cell mediated MOLM-13 cell killing, human primary T cells, E:T 10:1: test concentration or dose not given here.

Row | Binder | % Lysis, T cell mediated MOLM-13 cell killing, human primary T cells, E:T 10:1 [%] | EC50 (M), T cell mediated MOLM-13 cell killing, human primary T cells, E:T 10:1 [M]
1 | B1 | 20 | 1.3e-09
2 | B2 |  | 1.4e-10
3 | B3 | 32 | 2.3e-10
4 | B4 | 31 | 1.2e-10

What follows are binders tested against T5, Cynomolgus T cell receptor on cynomolgus primary T cells (cynomolgus monkey) (assay: cell-based or functional assay).

Row | Binder | % Lysis, T cell mediated MOLM-13 cell killing, cynomolgus primary T cells, E:T 10:1 [%] | EC50 (M), T cell mediated MOLM-13 cell killing, cynomolgus primary T cells, E:T 10:1 [M]
5 | B1 | 14 | 9e-10
6 | B2 | 32 | 1.2e-10
7 | B3 | 37 | 1.7e-10
8 | B4 | 35 | 5.2e-11

Molecular target: T1, Human T cell receptor on human primary …
Test: cell-based or functional assay
Remark: another data set of the same source

Row | Binder | % lysis, MOLM-13, Human T cell mediated killing [%] | EC50 (M), MOLM-13, Human T cell mediated killing [M]
9 | B1 | 20 | 
10 | B2 | 22 | 2.5e-10
11 | B3 | 24 | 3e-10
12 | B4 | 26 | 1.8e-10

Molecular target: T5, Cynomolgus T cell receptor on …
Test: cell-based or functional assay
Remark: another data set of the same source

Row | Binder | % lysis, MOLM-13, Cynomolgus T cell mediated killing [%] | EC50 (M), MOLM-13, Cynomolgus T cell mediated killing [M]
13 | B1 | 14 | 8.9e-10
14 | B2 | 33 | 2.1e-10
15 | B3 | 37 | 4.1e-10
16 | B4 | 44 | 

Molecular target: T1, Human T cell receptor on human primary …
Test: cell-based or functional assay
Remark: another data set of the same source

Row | Binder | % lysis, KG-1a, Human T cell mediated killing [%] | EC50 (M), KG-1a, Human T cell mediated killing [M]
17 | B1 | 29 | 2.4e-09
18 | B2 | 49 | 4.4e-10
19 | B3 | 51 | 1.3e-09
20 | B4 | 56 | 6.8e-10

Molecular target: T5, Cynomolgus T cell receptor on …
Test: cell-based or functional assay
Remark: another data set of the same source

Row | Binder | % lysis, KG-1a, Cynomolgus T cell mediated killing [%] | EC50 (M), KG-1a, Cynomolgus T cell mediated killing [M]
21 | B1 | 14 | 1.6e-09
22 | B2 | 41 | 2.7e-10
23 | B3 | 61 | 6.7e-10
24 | B4 | 64 | 3.4e-10

Molecular target: T1, Human T cell receptor on human primary …
Test: cell-based or functional assay
Remark: another data set of the same source

Row | Binder | IC50 (M), xCELLigence CHO Flp-In huCD123 cell killing, Human T cell mediated killing [M]
25 | B1 | 3.4e-11
26 | B2 | 1.1e-11
27 | B3 | 1.4e-11
28 | B4 | 9.1e-12

Molecular target: T5, Cynomolgus T cell receptor on …
Test: cell-based or functional assay
Remark: another data set of the same source

Row | Binder | IC50 (M), xCELLigence CHO Flp-In huCD123 cell killing, Cynomolgus T cell mediated killing [M]
29 | B1 | 8.1e-11
30 | B2 | 1.9e-11
31 | B3 | 1.9e-11
32 | B4 | 5.1e-12

Molecular target: T2, Cynomolgus …
Test: SPR ProteOn off-rate screen

Row | koff [s⁻¹] | Binder
33 | 0.00087 | B5
34 | 0.000364 | B6

Molecular target: T3, human T cell receptor on human primary …
Test: flow cytometry, human primary T cells
Procedure: Dose-dependent binding of the purified monovalent ISVD variants to CHO-K1 huTCR(2XN9)/huCD3 overexpressing cells or human primary T cells was evaluated by flow cytometry. […] Next, cells were washed 3 times with FACS buffer and incubated with 1 μg/ml THE™ His Tag Antibody, mAb, Mouse (Genscript, A00186) and washed again. […] Subsequently, cells were resuspended in FACS buffer supplemented with 5 nM TO-PRO®-3 Iodide to distinguish live from dead cells, which are removed during the gating procedure. Cells were analyzed using a FACS Array flow cytometer (BD Biosciences) and Flowing Software. First a P1 population which represented more than 80% of the total cell population was selected based on FSC-SSC distribution. In this gate, 10000 cells were counted during acquisition. From this population the TO-PRO®-3+ cells (dead cells) were excluded and the mean fluorescence intensity (MFI) PE value was calculated.

Row | EC50 [nM] | Binder
35 | 110 | B7
36 | 110 | B8
37 | 160 | B9

Molecular target: T1, Human T cell receptor on human primary …
Test: flow cytometry, human primary T cells
Procedure: The ISVD variants were characterized for binding to CHO-K1 huTCR(2XN9)/huCD3 or to human and cynomolgus primary T cells. […] Next, cells were washed 3 times with FACS buffer and incubated with 1 μg/ml ANTI-FLAG® M2 Ab (Sigma, F1804) and washed again. […] Subsequently, cells were resuspended in FACS buffer supplemented with 5 nM TO-PRO®-3 Iodide to distinguish live from dead cells, which are removed during the gating procedure. Cells were analyzed using a FACS Array flow cytometer (BD Biosciences) and Flowing Software. First a P1 population which represented more than 80% of the total cell population was selected based on FSC-SSC distribution. In this gate, 10000 cells were counted during acquisition. From this population the TO-PRO®-3+cells (dead cells) were excluded and the mean fluorescence intensity (MFI) PE value was calculated.

Row | EC50 [nM] | Binder
38 | 280 | B10
39 | 70 | B11
40 | 270 | B12
41 | 230 | B13
42 | 150 | B14

Molecular target: T4, Cynomolgus …
Test: SPR, ProteOn XPR36, 25 C, immobilised TCR-zipper
Source text: HuTCR-zipper or cyTCR-zipper protein was immobilized on a GLC sensor chip (between 100-200 RU) via amine coupling chemistry, using EDC/NHS for activation of the carboxyl groups on the chip surface (running buffer: HBS-EP+, pH7.4). […] Processed sensorgrams were fitted with the Langmuir model (1:1 interaction) using ProteOn Manager 3.1.0 (Version 3.1.0.6) software.

Row | Kd [nM] | Binder
43 | 1600 | B1
44 | 200 | B2
45 | 17 | B4

Molecular target: T4, Cynomolgus …
Test: SPR off-rate, ProteOn XPR36, immobilised TCR-zipper

Row | koff [s⁻¹] | Binder
46 | 0.00399 | B15

Molecular target: T2, Cynomolgus …
Test: ratio higher/lower kd on huTCR- and cyTCR-zipper (SPR)
Source text: Unique ISVD clones, i.e. clones with a unique sequence, were subsequently selected and screened to determine their off-rate. To this purpose, the ISVD containing periplasmic extracts were screened on huTCR-zipper and cyTCR-zipper protein by SPR on a ProteOn XPR36 instrument. The zipper proteins were immobilized on a GLC sensor chip (between 4300 and 5100RU) via amine coupling chemistry, using EDC/sulfo-NHS for activation of the carboxyl groups on the chip surface (running buffer: HBS-EP+, pH7.4). Periplasmic extracts were injected at 1/10 dilution for 2 min (at a flow rate of 45 μL/min) and dissociation was followed for 900 s. A pulse of 100 s of 3 M MgCl2 at 45 μL/min was used for regeneration. […] Processed sensorgrams were fitted with the Langmuir model (1:1 interaction) using ProteOn Manager 3.1.0 (Version 3.1.0.6) software.

Row | gap in off-rate human vs cyno [fold] | Binder
47 | 1.1 | B5
48 | 1 | B6

Molecular target: T4, Cynomolgus …
Test: higher koff divided by lower koff, humanTCR zipper vs cynoTCR zipper (SPR)

Row | Gap in off-rate human vs cyno [fold] | Binder
49 | 1 | B10
50 | > 55.9 | B11
51 | 1.1 | B12
52 | 1 | B13
53 | > 61.1 | B14

Each binder was assayed against T6, Cynomolgus T cell receptor on the HSC-F cynomolgus T cell line (cynomolgus monkey) (assay: flow cytometry competition with Flag3-His6-tagged anti-TCR ISVD ligand, HSC-F cells).
T6 construct: whole, on cells; also called HSC-F cells; HSC-F cyno T cell line (NIBIO JCRB1164)
Procedure: (§1) Subsequently, cells were resuspended in FACS buffer supplemented with 1 μg/ml Propidium Iodide (PI, Sigma, P4170) to distinguish live from dead cells. Cells were analyzed using a FACS Array flow cytometer (BD Biosciences) using Flowing Software. First a P1 population which represented more than 80% of the total cell population was selected based on FSC-SSC distribution. In this gate, 10000 cells were counted during acquisition. From this population the Propidium iodide or TO-PRO©-3 Iodide positive cells (dead cells) were excluded and the median or Mean PE value was calculated.

Row | IC50 [nM] | Binder
54 | 620 | B16
55 | 730 | B17

Molecular target: T1, Human T cell receptor on human primary …
Test: flow cytometry competition with Flag3-His6-tagged anti-TCR ISVD ligand, human primary T cells
Procedure: as §1

Row | IC50 [nM] | Binder
56 | 100 | B16
57 | 92 | B17

Reference: US20240092919A1 (Ablynx, published 2024)
